In paper doi:10.1101/415992:

Target: Mps1-1 kinetochores (budding yeast) (UniProt P40568)
Experiment: optical trap force-clamp flow assay

Sequence of UniProt P40568 (P40568 whole entry, looked up): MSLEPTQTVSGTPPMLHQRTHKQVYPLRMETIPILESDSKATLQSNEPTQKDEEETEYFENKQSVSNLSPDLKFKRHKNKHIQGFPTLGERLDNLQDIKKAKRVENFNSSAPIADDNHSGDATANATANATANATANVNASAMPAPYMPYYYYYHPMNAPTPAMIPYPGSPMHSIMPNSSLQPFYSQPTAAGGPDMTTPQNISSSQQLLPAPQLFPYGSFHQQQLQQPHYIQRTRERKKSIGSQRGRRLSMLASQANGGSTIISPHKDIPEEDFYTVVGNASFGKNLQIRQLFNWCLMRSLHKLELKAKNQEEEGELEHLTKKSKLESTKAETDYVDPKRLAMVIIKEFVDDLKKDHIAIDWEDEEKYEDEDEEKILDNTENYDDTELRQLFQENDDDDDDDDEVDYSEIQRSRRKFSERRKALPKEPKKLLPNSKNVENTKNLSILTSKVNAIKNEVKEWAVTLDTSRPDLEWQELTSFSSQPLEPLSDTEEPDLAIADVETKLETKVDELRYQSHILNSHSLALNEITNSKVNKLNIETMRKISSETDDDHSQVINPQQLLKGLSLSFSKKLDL

What does the source list for “dynamic microtubules (assembling and shortening tips of single, coverslip-anchored microtubules) (from UniProt Q6B856 1-445) (complex)”?
detachment rate (with 0.5 μM AurB*, 1.5 pN): 28.9 hr^-1; detachment rate (with 0.5 μM AurB*, 5 pN): 7 hr^-1; detachment rate (with 0.5 μM AurB*, ~1 pN): 4.6 hr^-1; detachment rate (with 0.5 μM AurB*-KD, 1.5 pN): 10.4 hr^-1; detachment rate (with 0.5 μM AurB*-KD, 5 pN): 7 hr^-1; detachment rate (with 5 μM AurB*, ~1 pN): 7.2 hr^-1
